{"source": "paper PMC7448383", "origin": "cited, not measured here", "biological_target": "GST (Schistosoma japonicum) [GST: P08515]", "data": [{"substance": "GST (from UniProt P08515)", "values": [{"measurement": "Kd", "value": 340, "unit": "nM"}]}]}
